Reference: patent US10428327B2, “Compositions and methods for enhancing homologous recombination” (LIFE TECHNOLOGIES CORPORATION, priority 2016, dated 2019)
Oligonucleotides are written 5' to 3', each unit as a sugar letter and its base; * is a phosphorothioate linkage, no mark a phosphodiester; rarer units and linkages stand in square brackets, end groups in braces. Plain capitals give the bases only. d = 2'-deoxy (DNA)

Legend:
[1] = test system: disrupted EmGFP stable cell lines; test: Homologous recombination (HDR) assay, gain of EmGFP function by flow cytometry; format: cell-based; conditions: for Avg (% GFP+ cells): sequential delivery
Procedure: The JUMP-IN™ system was used to prepare […]™ HEK293 stable cell expressing EmGFP (Thermo Fisher Scientific). The gene sequence of EmGFP is described in Table 5. To create a disrupted EmGFP mutant stable cell line, a gRNA targeting the 5′-[…]-3′ (SEQ ID NO: 125) sequence in EmGFP gene was synthesized. The resulting gRNA (300 ng) was incubated with 1.5 μg of GENEART® […]™ Cas9 nuclease and used to transfect wild type EmGFP cells via electroporation. The single cell clonal isolation was carried out by limiting dilution. The EmGFP loci from non-glowing cells were amplified by PCR using a forward primer 5′-[…]-3′ (SEQ ID NO: 126) and a reverse primer 5′-[…]-3′ (SEQ ID NO: 127) and the resulting PCR products were subjected to TOPO cloning and sequencing. From these clones, a disrupted EmGFP stable cell line containing a deletion of 5′-CACCTT-3′ (SEQ ID NO: 25) was identified (Table 5). In the homologous recombination assay, the gain of EmGFP function was determined by flow cytometric analysis.
(§1) To create homologous recombination (HR) assays, a series of gRNAs flanking the insertion site within the EmGFP gene were designed and synthesized (Table 4). Each individual gRNA was combined with GENEART™ […]™ Cas9 Nuclease to form the Cas9 protein/gRNA ribonucleoprotein complexes (Cas9 RNPs). The Cas9 RNPs were then used to transfect cells via NEON® electroporation. The genomic cleavage efficiency was then evaluated using the GENEART® Genomic Cleavage Detection kit at 48 hours post transfection. The gRNAs with highest editing efficiencies and also in close proximity to the insertion site were selected for the subsequent HR assays. For donor design of a single-stranded oligonucleotide, typically the mutation site was positioned at the center flanked by 30 to 50 nucleotides on each side. For asymmetric donor design, 30 nucleotides were placed on either the left or right arm and then 50 or 67 nucleotides on the right or left arm respectively, in both PAM and non-PAM strands. For design of a dsDNA oligonucleotide with single-stranded overhangs, the insertion element was overlapped in the center flanked by various lengths of ssDNA oligonucleotide on each side. By annealing two single-stranded oligonucleotides at 95° C. for 3 minutes, dsDNA donor molecules with either a 5′ protrusion or a 3′ protrusion were generated. To measure homologous recombination efficiency, the donor DNA was either co-transfected with Cas9 RNPs or delivered sequentially into cells via electroporation. At 48 hours post transfection, the gain of EmGFP function in reporter cell lines was determined by flow cytometric analysis with an Attune® NxT Acoustic Focusing Cytometer (Thermo Fisher Scientific). Alternatively, the genomic loci were PCR-amplified using the corresponding primers and then subjected to GENEART® Genomic Cleavage Detection assay or restriction digestion. The resulting PCR products were also subjected to TOPO cloning. Typically, 96 colonies were randomly picked for sequencing. The sequencing data were analyzed using VECTOR NTI ADVANCE® 11.5 software (Thermo Fisher Scientific).
For each homologous recombination assay, 1.5 μg of Cas9 protein and 360 ng of gRNA were added to Resuspension Buffer R to a final volume of 7 μl, but limiting the total volume of Cas9 protein plus gRNA to less than 1 μl. The gRNA could be diluted in Buffer R if the concentration was too high. Upon mixing, the sample was incubated at room temperature for 5 to 10 minutes to form Cas9 RNPs. Meanwhile, […]™ HEK293 cells expressing either eBFP or disrupted EmGFP were detached from culture flask with TRYPLE™ Express Enzyme and then counted. Aliquots of 1×10^6 cells were washed once with DPBS without Ca^2+ and Mg^2+ and the cell pellets were resuspended in 50 μl of Resuspension Buffer R. A 5 μl aliquot of cell suspension was mixed with 7 μl of Cas9 RNPs. […] The electroporated cells were transferred to 300 μl of […]. […]

[2] = test system: eBFP locus in HEK293 cells expressing eBFP; test: EcoRI restriction digestion of PCR-amplified eBFP locus (FLAG tag/EcoRI insertion); format: cell-based; conditions: FIG. 11B, length of 3′ overhang, 48 hours
From the text: FIG. 11. Insertion of a FLAG tag along with an EcoRI site using dsDNA donor with single-stranded overhangs. (A) Various donor DNA molecules containing a 30-base FLAG tag along with an EcoRI site were designed and synthesized, including single-stranded DNA donor (ssDNA), blunt-end dsDNA donor (blunt), dsDNA donor with 5′ overhang (5′), dsDNA donor with 3′ overhang (3′). The length of overhangs varied from 6 nucleotides (6), 15 nucleotides (15) to 30 nucleotides (30). The 3′ and 5′ ends of the oligonucleotides harbored two consecutive phosphorothioate-modified bases (Table 4). The short dsDNA donors with and without overhangs were prepared by annealing two short DNA oligonucleotides. […] At 48 hours post transfection, the eBFP locus was PCR-amplified. The resulting PCR fragments were analyzed by the genomic cleavage and detection assays to determine the percentage of Indel or subjected to restriction digestion with EcoRI to determine the percentage of digestion. (B) Length of 3′ overhang. […] Alternatively, a dsDNA donor with 30-base 3′ overhang but without phosphorothioate modification (30-3′n) was used. The percentage of digestion with EcoRI was determined at 48 hours post transfection. (C) Dose effect. […] The eBFP loci were PCR-amplified. The resulting PCR fragments were analyzed by EcoRI digest. (D) Sequencing verification. The PCR fragments were cloned into E. coli and 192 clones were randomly picked for sequencing. The relative percentage of wild type (wt), NHEJ, and HDR clones derived from either ssDNA donor (ssDNA) or dsDNA with 3′ overhangs (3′ overhang) was plotted. The white rectangles represented the population of clones that contained the insert but with a point mutation. Examples of edited clones were shown in (E) (not representing the actual percentages of NHEJ and HDR). The underlined sequences represented the FLAG tag along with an RI site. FIG. 11 discloses SEQ ID NOs: 15-24, respectively, from top to bottom.
as §1, with “The sequencing data were analyzed using VECTOR NTI ADVANCE® 11.5 software (Thermo Fisher Scientific).” left out

[3] = Equal Mass of donor, +5 gRNA, 6 nt insertion
[4] = Equal Molarity of donor, +5 gRNA, 6 nt insertion

Row | Molecule | Avg (% GFP+ cells) [1, 3] [%] | Avg (% GFP+ cells) [1, 4] [%] | Avg (% GFP+ cells) ([1]; (+3) gRNA, 10 pmol ssDNA donor) [%] | Avg (% GFP+ cells) ([1]; (+5) gRNA, 10 pmol ssDNA donor) [%] | Avg (% GFP+ cells) ([1]; (−3) gRNA, 10 pmol ssDNA donor) [%] | also measured
1 | PS40: phosphorothioate 40-mer PAM ssDNA donor, EmGFP, SEQ ID 42 (DNA GGCGAAGCACTGCACGCCGTAGGTGAAGGTGGTCACGAGG; 5' phosphate, chemistry not fully specified) | 4.35 | 1.79 | – | – | – | –
2 | 40: unmodified 40-mer PAM ssDNA donor, EmGFP, SEQ ID 43 (DNA GGCGAAGCACTGCACGCCGTAGGTGAAGGTGGTCACGAGG; DNA, backbone not given here) [compound 40] | 2.96 | 1.38 | – | – | – | –
3 | 50-30 NP: asymmetric non-PAM strand ssDNA donor, EmGFP, SEQ ID 66 (nucleic acid, chemistry not given here) DNA: CGGGGTAGCGGGCGAAGCACTGCACGCCGTAGGTGAAGGTGGTCACGAGGGTGGGCCAGGGCACGGGCAGCTTGCCGGTGG | – | – | 4.1 | 30.8 | 30.0 | –
4 | PS79: phosphorothioate 79-mer PAM ssDNA donor, EmGFP, SEQ ID 38 (nucleic acid, 5' phosphate, modified ends, chemistry not fully specified) DNA: CATGTGGTCGGGGTAGCGGGCGAAGCACTGCACGCCGTAGGTGAAGGTGGTCACGAGGGTGGGCCAGGGCACGGGCAGC | 12.94 | 12.53 | – | – | – | –
5 | 79: unmodified 79-mer PAM ssDNA donor, EmGFP, SEQ ID 39 (nucleic acid, DNA, backbone not given here) DNA: CATGTGGTCGGGGTAGCGGGCGAAGCACTGCACGCCGTAGGTGAAGGTGGTCACGAGGGTGGGCCAGGGCACGGGCAGC | 7.99 | 7.62 | – | – | – | –
6 | 24-3′: dsDNA donor with 24-base 3′ overhangs, annealed SEQ ID 89 and 90 (nucleic acid, further chemistry not fully specified) chain 1: dG*dA*dCdTdAdCdAdAdAdGdAdCdGdAdTdGdAdCdGdAdCdAdAdGdAdAdTdTdCdTdTdAdCdGdGdCdGdTdGdCdAdGdTdGdCdTdTdCdAdGdCdCdGdCdTdAdCdC*dC*dC chain 2: dA*dA*dGdAdAdTdTdCdTdTdGdTdCdGdTdCdAdTdCdGdTdCdTdTdTdGdTdAdGdTdCdGdGdTdCdAdGdGdGdTdGdGdTdCdAdCdGdAdGdGdGdTdGdGdGdC*dC*dA | – | – | – | – | – | Avg (% digestion) [2]: 17.3%; Avg (% digestion) ([2]; listed as donor DNA molecules with 24-base 3′-protruded ends): approximately 15%
7 | 48-50 NP: symmetric non-PAM strand ssDNA donor, EmGFP, SEQ ID 70 (nucleic acid, DNA, backbone and methylation of C not given here; further chemistry not fully specified) DNA: GTGCTGCTTCATGTGGTCGGGGTAGCGGGCGAAGCACTGCACGCCGTAGGTGAAGGTGGCACGAGGGTGGGCCAGGGCACGGGCAGCTTGCCGGTGG | – | – | 9.5 | 26.0 | 18.3 | Avg (% GFP+ cells), normalized HDR efficiency (% EmGFP+ cells/% Indel) ([1]; (+5)gRNA): 38.2%; Avg (% GFP+ cells), normalized HDR efficiency (% EmGFP+ cells/% Indel) ([1]; (−3)gRNA): 26.1%
8 | 30-51 P: asymmetric PAM strand ssDNA donor, EmGFP, SEQ ID 67 (nucleic acid, chemistry not given here) DNA: CCGTGCCCTGGCCCACCCTCGTGACCACCTTCACCTACGGCGTGCAGTGCTTCGCCCGCTACCCCGACCACATGAAGCAGC | – | – | 4.0 | 30.6 | 34.7 | –
9 | 50-30 P: asymmetric PAM strand ssDNA donor, EmGFP, SEQ ID 65 (nucleic acid, DNA, backbone and methylation of C not given here; further chemistry not fully specified) DNA: CCACCGGCAAGCTGCCCGTGCCCTGGCCCACCCTCGTGACCACCTTCACCTACGGCGTGCAGTGCTTCGCCCGCTACCCCG | – | – | 8.7 | 19.7 | 24.6 | –
10 | 30-51 NP: asymmetric non-PAM strand ssDNA donor, EmGFP, SEQ ID 68 (nucleic acid, chemistry not given here) DNA: GCTGCTTCATGTGGTCGGGGTAGCGGGCGAAGCACTGCACGCCGTAGGTGAAGGTGGTCACGAGGGTGGGCCAGGGCACGG | – | – | 11.3 | 20.6 | 23.7 | –
11 | 36-3′: dsDNA donor with 36-base 3′ overhangs, annealed SEQ ID 93 and 94 (nucleic acid, further chemistry not fully specified) chain 1: dA*dA*dGdAdAdTdTdCdTdTdGdTdCdGdTdCdAdTdCdGdTdCdTdTdTdGdTdAdGdTdCdGdGdTdCdAdGdGdGdTdGdGdTdCdAdCdGdAdGdGdGdTdGdGdGdCdCdAdGdGdGdCdAdCdG*dG*dG chain 2: dG*dA*dCdTdAdCdAdAdAdGdAdCdGdAdTdGdAdCdGdAdCdAdAdGdAdAdTdTdCdTdTdAdCdGdGdCdGdTdGdCdAdGdTdGdCdTdTdCdAdGdCdCdGdCdTdAdCdCdCdCdGdAdCdC*dA*dC | – | – | – | – | – | Avg (% digestion) [2]: 41.7%
